The experiment has as its target Blom7α-His6 (pET-30a(+)) (human, UniProt Q7Z7F0-1 1-614). The experiment is described as follows: pull-down.

B1: GST-SNEV^Prp19-Pso4 (natural protein)
chain: MSLICSISNEVPEHPCVSPVSNHVYERRLIEKYIAENGTDPINNQPLSEEQLIDIKVAHPIRPKPPSATSIPAILKALQDEWDAVMLHSFTLRQQLQTTRQELSHALYQHDAACRVIARLTKEVTAAREALATLKPQAGLIVPQAVPSSQPSVVGAGEPMDLGELVGMTPEIIQKLQDKATVLTTERKKRGKTVPEELVKPEELSKYRQVASHVGLHSASIPGILALDLCPSDTNKILTGGADKNVVVFDKSSEQILATLKGHTKKVTSVVFHPSQDLVFSASPDATIRIWSVPNASCVQVVRAHESAVTGLSLHATGDYLLSSSDDQYWAFSDIQTGRVLTKVTDETSGCSLTCAQFHPDGLIFGTGTMDSQIKIWDLKERTNVANFPGHSGPITSIAFSENGYYLATAADDSSVKLWDLRKLKNFKTLQLDNNFEVKSLIFDQSGTYLALGGTDVQIYICKQWTEILHFTEHSGLTTGVAFGHHAKFIASTGMDRSLKFYSL
Consider B1, for which the binding result is given as “binds”.
